Source: patent publication US20150175708A1

Key:
[1] = biological target: MET on the cell surface of human tumor cell lines (human) (UniProt P08581); assay: cell-based or functional assay
[2] = biological target: EGFR on the cell surface of human tumor cell lines (human) (UniProt P00533); assay: cell-based or functional assay

MET on the cell surface of human tumor cell lines (human), sequence (P08581 25-1390): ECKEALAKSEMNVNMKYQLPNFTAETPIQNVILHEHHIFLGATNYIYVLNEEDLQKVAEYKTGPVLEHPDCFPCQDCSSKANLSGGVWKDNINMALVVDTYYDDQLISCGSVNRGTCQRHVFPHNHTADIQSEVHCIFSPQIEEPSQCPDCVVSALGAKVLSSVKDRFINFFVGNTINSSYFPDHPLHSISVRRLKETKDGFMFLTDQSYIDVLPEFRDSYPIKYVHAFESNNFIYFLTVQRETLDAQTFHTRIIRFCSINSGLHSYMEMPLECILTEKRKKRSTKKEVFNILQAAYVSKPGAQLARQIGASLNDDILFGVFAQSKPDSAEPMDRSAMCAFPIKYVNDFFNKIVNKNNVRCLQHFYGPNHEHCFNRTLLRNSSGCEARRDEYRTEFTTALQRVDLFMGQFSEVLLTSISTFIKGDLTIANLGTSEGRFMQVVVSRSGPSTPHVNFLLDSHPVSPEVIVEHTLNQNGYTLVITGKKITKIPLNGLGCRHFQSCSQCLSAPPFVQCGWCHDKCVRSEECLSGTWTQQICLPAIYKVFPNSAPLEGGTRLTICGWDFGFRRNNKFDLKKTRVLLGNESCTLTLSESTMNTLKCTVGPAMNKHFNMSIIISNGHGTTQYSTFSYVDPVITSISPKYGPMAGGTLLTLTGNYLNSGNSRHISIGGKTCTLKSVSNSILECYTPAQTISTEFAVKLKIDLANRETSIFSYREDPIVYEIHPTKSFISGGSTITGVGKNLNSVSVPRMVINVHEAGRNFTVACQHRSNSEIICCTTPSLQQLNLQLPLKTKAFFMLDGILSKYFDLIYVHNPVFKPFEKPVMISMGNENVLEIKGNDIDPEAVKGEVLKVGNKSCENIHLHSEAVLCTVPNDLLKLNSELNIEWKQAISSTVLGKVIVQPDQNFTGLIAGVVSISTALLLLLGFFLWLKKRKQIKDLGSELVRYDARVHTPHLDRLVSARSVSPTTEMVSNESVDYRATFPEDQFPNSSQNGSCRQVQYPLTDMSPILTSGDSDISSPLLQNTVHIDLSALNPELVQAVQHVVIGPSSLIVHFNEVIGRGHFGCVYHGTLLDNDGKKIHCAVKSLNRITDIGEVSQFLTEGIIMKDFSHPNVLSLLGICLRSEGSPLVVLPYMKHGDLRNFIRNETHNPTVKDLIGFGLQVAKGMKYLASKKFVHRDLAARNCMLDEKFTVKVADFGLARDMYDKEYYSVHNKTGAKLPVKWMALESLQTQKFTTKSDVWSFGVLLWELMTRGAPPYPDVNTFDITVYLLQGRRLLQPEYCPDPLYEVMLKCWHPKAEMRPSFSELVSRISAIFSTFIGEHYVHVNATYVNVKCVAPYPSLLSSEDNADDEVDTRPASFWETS

- % cell surface MET remaining, H441 cells, antibody 50 nM; isotype control, reference for the % [1]: 100%
- AVG of MFI (staining of cell surface MET), H441 cells, antibody 50 nM; isotype control, reference for the % [1]: 77.4 MFI
- % cell surface EGFR remaining, H441 cells, antibody 50 nM; isotype control, reference for the % [2]: 100%
- AVG of MFI (staining of cell surface EGFR), H441 cells, antibody 50 nM; isotype control, reference for the % [2]: 56.3 MFI
Substance: hIgG4 (antibody)
